Patent US20120196307

Experiments:
[1] = molecular target: synaptotagmin-1, intact 65 kDa protein (rat) (UniProt P21707)
[2] = system: GST-CRMP2 recombinant protein (Kinasource, cat# SU-040) [GST: P08515]
[3] = system: GST-synaptotagmin recombinant protein [GST: P08515]
[4] = molecular target: collapsin response mediator protein-2, intact (rat) (UniProt P47942)

synaptotagmin-1, intact 65 kDa protein (rat), sequence (P21707 whole entry): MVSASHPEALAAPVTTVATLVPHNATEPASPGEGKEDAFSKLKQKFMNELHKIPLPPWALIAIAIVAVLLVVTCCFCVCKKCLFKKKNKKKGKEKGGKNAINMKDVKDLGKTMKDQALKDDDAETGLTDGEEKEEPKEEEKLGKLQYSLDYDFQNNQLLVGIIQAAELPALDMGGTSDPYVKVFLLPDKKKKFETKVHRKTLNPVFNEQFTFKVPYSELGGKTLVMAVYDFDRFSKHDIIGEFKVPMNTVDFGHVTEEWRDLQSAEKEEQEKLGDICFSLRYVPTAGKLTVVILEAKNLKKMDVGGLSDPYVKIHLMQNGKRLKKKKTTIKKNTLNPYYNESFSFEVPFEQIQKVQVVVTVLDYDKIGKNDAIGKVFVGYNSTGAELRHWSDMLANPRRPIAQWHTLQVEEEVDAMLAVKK
GST-CRMP2 recombinant protein (Kinasource, cat# SU-040) [GST: P08515], sequence (P08515 whole entry, looked up): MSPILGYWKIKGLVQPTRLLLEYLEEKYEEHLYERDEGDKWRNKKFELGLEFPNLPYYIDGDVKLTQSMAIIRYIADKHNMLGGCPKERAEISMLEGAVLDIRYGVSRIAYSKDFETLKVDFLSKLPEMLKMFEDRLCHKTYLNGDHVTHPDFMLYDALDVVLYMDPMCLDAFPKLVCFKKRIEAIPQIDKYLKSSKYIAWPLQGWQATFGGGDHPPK
GST-synaptotagmin recombinant protein [GST: P08515], sequence (P08515 whole entry, looked up): as above

| Substance | in vitro protease digestion, Western blot [1] | in vitro digestion of the purified protein, Coomassie and Western blot [2] | in vitro digestion of the recombinant protein, Western blot [3] | in vitro protease digestion of naive brain lysate, Western blot [4] |
| --- | --- | --- | --- | --- |
| cathepsin B | Overall, Syt1 was relatively resistant to these proteases and under no conditions was the TBI-associated characteristic BDP-33k detected (results not shown). |  |  |  |
| calpain (purified; isoform not named where the result is told) |  | purified GST-CRMP-2 protein digested by calpain. The obtained cleavage fragments were used to determine the calpain cleavage site. | The recombinant synaptotagmin was cleaved in vitro to a 21 kDa BDP as detected with anti-GST. | in vitro calpain treatment of naive brain lysate resulted in the same fragmentation pattern observed after TBI in vivo, with the 62 kDa and 66 kDa intact CRMP-2 bands disappearing |
| MMP-9 | Overall, Syt1 was relatively resistant to these proteases and under no conditions was the TBI-associated characteristic BDP-33k detected (results not shown). |  |  |  |
| MMP-2 | Overall, Syt1 was relatively resistant to these proteases and under no conditions was the TBI-associated characteristic BDP-33k detected (results not shown). |  |  |  |
| cathepsin D | Overall, Syt1 was relatively resistant to these proteases and under no conditions was the TBI-associated characteristic BDP-33k detected (results not shown). |  |  |  |
